# Measured values published in the supplement of paper PMC7877785.
# ± gives the uncertainty stated by the source.
# Assay: self-splicing fitness, log relative to wild type (ln ratio); higher = more splicing; Tetrahymena group I intron in knt gene, E. coli kanamycin selection, DiMSum; sequences stand for … in CUCUCU…GGAGGGAAAAGUUAUCAGGCAUGCACCUGGUAGCUAGUCUUUAAACCAAUAGAUUGCAUCGGUUUAAAAGGCAAGACCGUCAAAUUGCGGGAAAGGGGUCAACAGCCGUUCAGUACCAAGUCUCAGGGGAAACUUUGAGAUGGCCUUGCAAAGGGUAUGGUAAUAAGCUGACGGACAUGGUCCUAACCACGCAGCCAAGUCCUAAGUCAACAGAUCUUCUGUUGAUAUGGAUGCAGUUCACAGACUAAAUGUCGGUCGGGGAAGAUGUAUUCUUCUCAUAAGAUAUAGUCGGACCUCUCCUUAAUGGGAGCUAGCGGAUGAAGUGAUGCAACACUGGAGCCGCUGGGAACUAAUUUGUAUGCGAAAGUAUAUUGAUUAGUUUUGGAGUACUCGUGGUCG
# How it was run: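 DiMSum derived fitness as the error-weighted combination of fold changes across replicates, kanamycin versus no kanamycin, normalised to wild type. E. coli BL21(DE3) held the library, which randomised all eight P1ex-region intron nucleotides within the knt kanamycin-resistance gene on pET-22b(+). Six replicate transformations grew overnight at 37°C or 30°C on LB agar with or without 25 μg/mL kanamycin, also containing 100 μg/mL carbenicillin, 50 μM IPTG and 0.2% rhamnose, and pooled colonies were amplicon-sequenced on an Illumina HiSeq 2500.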
Sequence,self-splicing fitness (ln) (30 °C),self-splicing fitness (ln) (37 °C)
AUUUAGCAAUAUUACGAAAU,-2 ± 0.31,-1.54 ± 0.27
AUUUAGCAAUAUUACGAGAG,–,-2.7 ± 0.3
AUUUAGCAAUAUUACGAUGU,-1.08 ± 0.096,0.369 ± 0.11
AUUUAGCAAUAUUACGCCUA,-1.24 ± 0.2,0.0334 ± 0.19
AUUUAGCAAUAUUACGCGAU,-3.22 ± 0.33,-2.49 ± 0.48
AUUUAGCAAUAUUACGCGCA,-0.312 ± 0.13,-0.00399 ± 0.16
AUUUAGCAAUAUUACGCGUU,-2.01 ± 0.2,-1.3 ± 0.19
AUUUAGCAAUAUUACGGCAA,-1.05 ± 0.16,-0.726 ± 0.17
AUUUAGCAAUAUUACGGCGU,-0.211 ± 0.11,0.269 ± 0.13
AUUUAGCAAUAUUACGUAAU,-0.35 ± 0.082,-0.32 ± 0.12
AUUUAGCAAUAUUACGUCCC,-0.0323 ± 0.37,-0.682 ± 0.42
AUUUAGCAAUAUUACGUGGA,-3.25 ± 0.21,-2.04 ± 0.16
AUUUAGCAAUAUUACGUUGA,-1.32 ± 0.2,-2.27 ± 0.26
CAAAAGCAAUAUUACGAAAC,-4.17 ± 0.39,-3.75 ± 0.33
CAAAAGCAAUAUUACGAAUG,-1.18 ± 0.057,-0.723 ± 0.076
CAAAAGCAAUAUUACGAGAC,-3.62 ± 0.39,-2.36 ± 0.21
CAAAAGCAAUAUUACGAGCA,-2.5 ± 0.14,-1.97 ± 0.14
CAAAAGCAAUAUUACGAUUU,-1.18 ± 0.061,-0.732 ± 0.075
CAAAAGCAAUAUUACGCAAA,-2.48 ± 0.14,-1.76 ± 0.17
CAAAAGCAAUAUUACGCAUG,-3.93 ± 0.19,-0.824 ± 0.15
CAAAAGCAAUAUUACGCCCU,-2.13 ± 0.17,-0.434 ± 0.17
CAAAAGCAAUAUUACGCGAU,-4 ± 0.3,-1.78 ± 0.23
CAAAAGCAAUAUUACGCGUU,-3.91 ± 0.17,-2.74 ± 0.13
CAAAAGCAAUAUUACGCUGG,-2.88 ± 0.19,-1.9 ± 0.17

Sequence,self-splicing fitness (ln) (30 °C),self-splicing fitness (ln) (37 °C)
CAAAAGCAAUAUUACGGCUC,-1.56 ± 0.12,0.0316 ± 0.14
CAAAAGCAAUAUUACGGGCA,-2.88 ± 0.16,-1.99 ± 0.14
CAAAAGCAAUAUUACGGGCU,-3.65 ± 0.23,-2.57 ± 0.21
CAAAAGCAAUAUUACGUAGC,-3.1 ± 0.13,-2.61 ± 0.24
CAAAAGCAAUAUUACGUAUG,-2.89 ± 0.098,-2.22 ± 0.13
CAAAAGCAAUAUUACGUCAA,-3.34 ± 0.11,-2.86 ± 0.12
CAAAAGCAAUAUUACGUCCA,-1.7 ± 0.18,-2.05 ± 0.16
CAAAAGCAAUAUUACGUCCC,-2.65 ± 0.26,-2.26 ± 0.42
CAAAAGCAAUAUUACGUCGU,-3.83 ± 0.12,-1.54 ± 0.1
CAAAAGCAAUAUUACGUGAU,-3.62 ± 0.11,-2.41 ± 0.12
CAAAAGCAAUAUUACGUGCA,-2.95 ± 0.12,-1.96 ± 0.12
CAAAAGCAAUAUUACGUGGA,-3.4 ± 0.14,-2 ± 0.096
CAAAAGCAAUAUUACGUGUG,-2.48 ± 0.055,-1.09 ± 0.059
CAAAAGCAAUAUUACGUUGA,-3.14 ± 0.14,-2.32 ± 0.12
CAACAGCAAUAUUACGACUG,-0.232 ± 0.052,0.0876 ± 0.072
CAACAGCAAUAUUACGAUAU,-4 ± 0.15,-2.2 ± 0.13
CAACAGCAAUAUUACGAUGA,-1.53 ± 0.12,-0.678 ± 0.089
CAACAGCAAUAUUACGAUUU,-0.837 ± 0.067,-0.69 ± 0.083
CAACAGCAAUAUUACGCAAA,-3.57 ± 0.33,-2.37 ± 0.14
CAACAGCAAUAUUACGCAGC,-4.4 ± 0.25,-2.75 ± 0.29
CAACAGCAAUAUUACGCCAA,-2.36 ± 0.14,-1.62 ± 0.14
CAACAGCAAUAUUACGCCCA,-0.825 ± 0.097,-1.04 ± 0.1
CAACAGCAAUAUUACGCCGU,-4.14 ± 0.29,-2.82 ± 0.38
CAACAGCAAUAUUACGCGGU,-2.36 ± 0.12,-2.88 ± 0.28

Sequence,self-splicing fitness (ln) (30 °C),self-splicing fitness (ln) (37 °C)
CAACAGCAAUAUUACGCUUC,-3.83 ± 0.24,-2.18 ± 0.2
CAACAGCAAUAUUACGGACU,-2.52 ± 0.11,-1.33 ± 0.14
CAACAGCAAUAUUACGGAUC,-3.08 ± 0.12,-1.89 ± 0.12
CAACAGCAAUAUUACGGCCU,-3.63 ± 0.16,-1.3 ± 0.12
CAACAGCAAUAUUACGGCUU,-1.88 ± 0.082,-0.875 ± 0.087
CAACAGCAAUAUUACGGGCA,-2.61 ± 0.1,-1.9 ± 0.12
CAACAGCAAUAUUACGGGCU,-3.65 ± 0.13,-2.66 ± 0.14
CAACAGCAAUAUUACGUCAA,-3.49 ± 0.13,-2.08 ± 0.1
CAACAGCAAUAUUACGUCAC,-3.96 ± 0.24,-2.26 ± 0.18
CAACAGCAAUAUUACGUCCG,-0.0787 ± 0.06,0.513 ± 0.076
CAACAGCAAUAUUACGUGGG,-3.25 ± 0.096,-1.11 ± 0.075
CAACAGCAAUAUUACGUGUG,-3.55 ± 0.14,-2.32 ± 0.11
CAACAGCAAUAUUACGUUAG,-2.13 ± 0.076,-1.52 ± 0.089
CAACAGCAAUAUUACGUUCU,-1.32 ± 0.073,-0.92 ± 0.094
CAACAGCAAUAUUACGUUGC,-4.78 ± 0.36,-1.54 ± 0.14
CAAGAGCAAUAUUACGAACG,-0.336 ± 0.063,0.335 ± 0.079
CAAGAGCAAUAUUACGAGCA,-2.85 ± 0.28,-2.63 ± 0.38
CAAGAGCAAUAUUACGAGUG,-1.46 ± 0.089,-1.23 ± 0.12
CAAGAGCAAUAUUACGAUAU,-3.3 ± 0.29,-2.7 ± 0.3
CAAGAGCAAUAUUACGCAUU,-3.39 ± 0.27,-2.51 ± 0.21
CAAGAGCAAUAUUACGCCCG,-1.84 ± 0.2,-1.03 ± 0.22
CAAGAGCAAUAUUACGCCGU,-1.59 ± 0.47,–
CAAGAGCAAUAUUACGCGCG,-1.47 ± 0.093,-0.891 ± 0.13
CAAGAGCAAUAUUACGCGCU,-3.72 ± 0.4,-2.34 ± 0.33

Sequence,self-splicing fitness (ln) (30 °C),self-splicing fitness (ln) (37 °C)
CAAGAGCAAUAUUACGCUGA,-2.97 ± 0.19,-2.08 ± 0.21
CAAGAGCAAUAUUACGCUGU,-3.93 ± 0.36,-2.34 ± 0.24
CAAGAGCAAUAUUACGCUUC,-3.61 ± 0.37,-2.23 ± 0.43
CAAGAGCAAUAUUACGGAAC,-3.74 ± 0.17,-2.52 ± 0.19
CAAGAGCAAUAUUACGGCAG,-1.54 ± 0.091,-0.926 ± 0.13
CAAGAGCAAUAUUACGGCUC,-3.78 ± 0.24,-2.27 ± 0.32
CAAGAGCAAUAUUACGGGAG,-2.35 ± 0.11,-1.8 ± 0.12
CAAGAGCAAUAUUACGGGGC,-1.99 ± 0.14,-3.02 ± 0.25
CAAGAGCAAUAUUACGUAGC,–,-1.86 ± 0.43
CAAGAGCAAUAUUACGUGAA,-3.89 ± 0.22,-2.75 ± 0.23
CAAGAGCAAUAUUACGUGCC,-3.59 ± 0.32,-3.51 ± 0.39
CAAGAGCAAUAUUACGUGCG,-1.17 ± 0.074,0.135 ± 0.09
CAAGAGCAAUAUUACGUGGC,-3.77 ± 0.2,-3.41 ± 0.28
CAAGAGCAAUAUUACGUGUC,-4.19 ± 0.2,-3.11 ± 0.2
CAAUAGCAAUAUUACGAAAC,–,-1.35 ± 0.24
CAAUAGCAAUAUUACGAAAG,-1.47 ± 0.082,-0.294 ± 0.13
CAAUAGCAAUAUUACGAACC,-2.22 ± 0.35,–
CAAUAGCAAUAUUACGAACG,-0.128 ± 0.053,0.24 ± 0.07
CAAUAGCAAUAUUACGAACU,-3.14 ± 0.27,-1.83 ± 0.18
CAAUAGCAAUAUUACGAAGC,-3.01 ± 0.32,-2.73 ± 0.32
CAAUAGCAAUAUUACGACAA,-3.42 ± 0.18,-2.07 ± 0.15
CAAUAGCAAUAUUACGAGUG,-0.279 ± 0.079,-0.905 ± 0.11
CAAUAGCAAUAUUACGAUCU,-3.45 ± 0.22,-1.91 ± 0.21
CAAUAGCAAUAUUACGAUGA,-2.26 ± 0.18,-1.54 ± 0.23
